Assay results reported in the nanobody polyreactivity screen of Harvey et al. (2022).

Test: yeast display, Sf9 membrane polyspecificity reagent, FACS + sequencing; frameworks hold sequencing errors
Summary of the method: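 Nanobodies from a synthetic yeast display library (Saccharomyces cerevisiae BJ5465), induced 36–48 hours with galactose, were stained 1 hour at 4 °C with 10% biotinylated, detergent-solubilized Sf9 membrane reagent, enriched on streptavidin microbeads, then FACS-sorted. Anti-HA (expression) and streptavidin (reagent binding) fluorescence set low and high (top ~1%) gates. Polyreactivity labels come from the gate of origin. Genes were colony-PCR amplified, MiSeq 2 × 250 sequenced and filtered by CDR length.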

Sequence | polyreactivity (PSR sort gate)
QVQLVESGGGLVQAGGSLRISCAASGGTFRPNAKGWSRQAPGKERELVAAITRSGGSTYYADSVKGRFTISRDNAKNTVYLQRNSLKPEETAVYYCARDLREWGQGTQVTVSS | low polyreactivity
QVQLVESGGGLVQAGGSLRISCAASGIIFKGYAMGWYRQAPGKERELVAAISHNADSTYADSVKGRFTISRDNAKNTVYLQMNSLNPEDTAVYYCNADTPLRSDYWGQGTQVTVSS | low polyreactivity
QVQLVESGGGLVQAGGSLRISCAASGIIFRLNAMGWYRQAPGKERELVAAIRRRGGSTYYADSVKGRFTISRDNAKNTVYLQMNSLKPEDTAVYYCAKDPHGSDFGYWGQGTQVTVSS | low polyreactivity
QVQLVESGGGLVQAGGSLRISCAASGIIFVWNAIGWYRQAPGKERELVADISWSSGRTYYADSVKGRFTISRDNAKNTVYLQMNSLIPEDTAVYYCATDDFWNVIFYAYYPEFDYWGQGTQVTVSS | low polyreactivity
QVQLVESGGGLVQAGGSLRISCAASGITASNAMGWNRQAPGKERELVAAISCRGGRTYYADSVKGRFTISRDNAKNTVYLQMNSLKPEDTAVYYCAKRYYTAQSRSDYWGQGTQVTVSS | high polyreactivity
QVQLVESGGGLVQAGGSLRISCAASGITFQSNAMGWYRQAPGTERELVAGITGNGGSTYYADSVKGRFTISRDNAKNTVYLQMNSLKPEDTAVYYCNIGRRKRTRYDYWGQGTQGTVSS | high polyreactivity
QVQLVESGGGLVQAGGSLRISCAASGITLAKNAMGWYRQAPGKETELVAAISRRGGNTYYADSVKGRFTISRDNAKNTVYLQMNSLKPEDTAVYYCAVDYRSTGLGYWGQGTQVTVSS | high polyreactivity
QVQLVESGGGLVQAGGSLRISCAASGLIFRHNAMGWYRQAPGKERELVAAITGSGSTYYADSEKGRFTISRDNAKNTVYLQMNSLKPEDTAVYYGNADYPGGLQEEDYWGQGTQVTVSS | low polyreactivity
QVQLVESGGGLVQAGGSLRISCAASGLTFNAYAMGWYRQAPGKERELLADITTSDGSTFYADSVKGRFTISRDKATNTVYLQMNSLKPEDTAVYYCNADAYGWYSGPWFKWLLWYDYWGQGTQVTVSS | low polyreactivity
QVQLVESGGGLVQAGGSLRISCAASGLTFRRNAMGGYRQAPGKERELFAAITASGGSTYYADSVTGRFTISRDNAKNTVFLQMNSLKPEETAVYYSAAVNYRWYSRNYDHYYWGQGTQVTVSS | high polyreactivity
QVQLVESGGGLVQAGGSLRISCAASGLTFVYYTMGWYSQAPGKEREFVAGIDWSGGSTYYADSVKLRFTISRDNAKNTVYLQMNSLKPEDTAVYYCAAAVYYQYGVYRHDYWGQGTQVTVSS | low polyreactivity
QVQLVESGGGLVQAGGSLRISCAASGLTIVPNAMGWYRQAPGKERELVAAISNNGGRTYYADSVKGRFTISRDNAKNTVYLQMNSLKPEDTAVYYCAKYLSPGERHSYDYWGQGTQVTVSS | high polyreactivity
QVQLVESGGGLVQAGGSLRISCAASGNICSWYAMGWSRQAPGKERELVAAIRWSSGSTYYADSVKWRFTISRDNAKNTVYLQMNSMKPEDTAVYYCAAVIKGWGQGTQVTVSS | high polyreactivity
QVQLVESGGGLVQAGGSLRISCAASGNTFDYYTMGWYRQAPGKERDLVASIDWSTTTTYYADSVKGRFTISRDNAKTTVYLQMKSLKPEDTAVYYCNTVYDFYHLGLYSGFRYHYWGQGTQVTVSS | low polyreactivity
QVQLVESGGGLVQAGGSLRISCAASGRICAYNAMGWYRQAPGKERELVAAITWSGGTTYYADSVKGRCTISRDNAKNSVYFQRNSLKPEVTAVYYCAATVGAASRYYYWAQGTQVTVSS | high polyreactivity
QVQLVESGGGLVQAGGSLRISCAASGRIFDLYAMGWYRQPPGKERELVASISSDGSTNYADSVKGRFTISRDNAKNTVYLQMNSLKPEDTAVYYCATRKGRRYGYNYWGQGTQVTVSS | high polyreactivity
QVQLVESGGGLVQAGGSLRISCAASGRIFDRYVLGWYRQAPGKERELVAAISSGGSTYYADSVKGRFTISRDNAKNTVYLQMNSLKPEDTAVYYCAADRRSKYDYWGQGTQVTVSS | low polyreactivity
QVQLVESGGGLVQAGGSLRISCAASGRIFDYNVMGWYRQAPGKERELVAGISSGGSTYYADSVKGRFTISRDNAKNTVYLQMNSLKPEDTAVYYCAARGRPYRGYGYWGQGTQVTVSS | high polyreactivity
QVQLVESGGGLVQAGGSLRISCAASGRIFGENAMGWYRQAPGKERELVAAIRFSSGSTYYADSVKGRFTISRDNAKNTVYLQMNSLKPEDTAVYYCNADGWYALYEWLAVSGYYWGQGTQVTVSS | low polyreactivity
QVQLVESGGGLVQAGGSLRISCAASGRIFLGNAMGWYRQAPGKERELVAAITNGGGSTYYADSVKGRFTISRDNAKNTVYLQMNSLKPEDTAVYYCARGYKKSVQRFEYWGQGTQVTVSS | high polyreactivity
QVQLVESGGGLVQAGGSLRISCAASGRIFPVNAMGWYRQAPGKERELVARISWRGGTYYADSVKGRFTISRDNAKNTVYLQMNSLKPEDTAFYYCAATLASTSYWYHYGYWGQGTQVTVSS | high polyreactivity
QVQLVESGGGLVQAGGSLRISCAASGRIFRAYAMGWYRQAPGKERELVADIRSTGSTNYADSVKGRFTISRDNAKNTVYLQMNSLNPEDTAGYYCAARWRSLRFGSGFEYWGQGTQVTVSS | high polyreactivity

Sequence | polyreactivity (PSR sort gate)
QVQLVESGGGLVQAGGSLRISCAASGRIFTRNAMGWYTQAPGNETELVAAITSGGSTNYADSVKGRFTISRDNAKNTVYLQMNSLKPEDTAVYFCYAVYYPYRIWGRVRPSYGYWGQGTQVTVSS | high polyreactivity
QVQLVESGGGLVQAGGSLRISCAASGRIFYFNTMGWYRQAPGKERELVAAISLSGGRTYYADSVKGRFTISRDNAKNTVYLQMNSLKREDSAVYYCNAVARSRSRDTSKGDYWGQGTQVTVSS | high polyreactivity
QVQLVESGGGLVQAGGSLRISCAASGRIFYGNAMGWYRQAPGKERELVAAIRRSGGSTYYADSVKGRFTISRDNAKNTVYLQMNSLKPEDTAVYYCNVDSGEFDYVWVYTYDYWGQGTQVTVSS | low polyreactivity
QVQLVESGGGLVQAGGSLRISCAASGRIFYYNAMGWYRQAPGKERELVAAITSGGSTNYADSVKGRFTISRDNAKNTVYLQMNSLKPEDTAVYYCAADYYYYVAGVHYDYWGQGTQVTVSS | low polyreactivity
QVQLVESGGGLVQAGGSLRISCAASGRTFARNSMGWYRQAPGKERELVATITIGGRTYYADSVKGRFTISRDNAMNTVYLQMNSLKPEDTAVYYCAKRISGYRGDYWGQGTQVTVSS | high polyreactivity
QVQLVESGGGLVQAGGSLRISCAASGRTFDSYAMGWYIQAPGKEREFVAAISYSGTSTYYADSVKGRFTISRDYAKNTVYLQMNSLIPEDTAVYYCAKEFIFRLWGQGTQVTVSS | low polyreactivity
QVQLVESGGGLVQAGGSLRISCAASGRTFHYYDMGWYRQAPGKERELVAAISSTAGSTYYADSVKGRFTISRDNAQNTVHLQMNSLKPEDTAVYYCAARQFGYYHVRNEYWGQGTQVTVSS | high polyreactivity
QVQLVESGGGLVQAGGSLRISCAASGRTFKSYAMGWYRQAPGKERELVAAISSSGGRTFYADSVKGRFTISRDNAKNTVYLQMNSLKPEDTAVYYCNARYCYRYGGYKPVGGYYWGQGTQVTVSS | high polyreactivity
QVQLVESGGGLVQAGGSLRISCAASGRTFPGYTMGWYRQAPGKERELVAAITRVGTTYYADSVKGRFTISRDNAKNTVYLQMNSLKPEDTAVYYCAAVISQGFIRYYYWGQGTQVTVSS | high polyreactivity
QVQLVESGGGLVQAGGSLRISCAASGRTFRKYAMGWYRQAPGKERELVAAISWSGGSTYYANSVKGRFTISRDNAKNTVYLQMNSLKPEDTAVYYCAAVPVHTGSLYWGFTSGYDYWGQGTQVTVSS | low polyreactivity
QVQLVESGGGLVQAGGSLRISCAASGRTFVRYAMGWYRQAPGKERELVAAIDSSGGRTYYADSVKGRFTISRDKAKNTVYLQMNSLKPEDTAVYYCNARRLASYRGYSWGQGTQVTVSS | high polyreactivity
QVQLVESGGGLVQAGGSLRISCAASGRTFWRNAMGWYRQAPAKERELVAAISRGGSTNYADSVKGRFTISRDNAKNTVYLQMNSLKPEDTAVYYCAARYYYRYNYWGQGTQVTVSS | high polyreactivity
QVQLVESGGGLVQAGGSLRISCAASGRTLRPNAMGWYRQAPGKERELVAAITWSGGRTYYADSVKGRFTISRDNAKNTVYLQMNSLKPGDTAVYYCAADYGYYRGGVYFQKLKFDYWGQGTQVTVSS | high polyreactivity
QVQLVESGGGLVQAGGSLRISCAASGSIFGSYTMGWYRQAPGKERELVAVINWSGDRTYYADSVKGRFTISRDNAKNTVYLQMNSLKPEDTAVYYCAARERAGYSRIRYNYWGQGTQVTVSS | low polyreactivity
QVQLVESGGGLVQAGGSLRISCAASGSIFGVNAMGWYRQAPGKERELVASITGGDSTNYADSVKGRFTISRDNAKNTVYLQMNSLKPEDNEVYYCAKDHYYRYEEGDYWGQATQVTVSS | low polyreactivity
QVQLVESGGGLVQAGGSLRISCAASGSIFHFNAMGWYRQAPGKERELVARISIGGGSTYYADSVKGRFTISRDNAKNTVYFQMKSLKPEDTAVYYCGVDGSPRYKYDYWGQGTQVNVSS | high polyreactivity
QVQLVESGGGLVQAGGSLRISCAASGSIFPAYDMGWYRQAPGKERELVAAITRGGSTDYADSVNGRFTISRDNAKNTVYLQMNSLKPEDTAVYFCAKRGYYYYHYVSGKPEDYWGQGTQVTVSS | low polyreactivity
QVQLVESGGGLVQAGGSLRISCAASGSIFPRYAMGWYRQAPGTERELVATISASGTDTYYADSVKGRFTISRDNAKNTVYLQMNSLKPEDTAVYYCAAGGYPGGEDYWGQGTQVTVSS | low polyreactivity
QVQLVESGGGLVQAGGSLRISCAASGSIFRNYAMGWYRQAPGKERELVAAISRNGGTTYYADSVKGRFTISRDNAKNTVYLQMNSLKPEDTAVYYCARLYYTQKDSKTGYGYWGQGTQVTVSS | high polyreactivity
QVQLVESGGGLVQAGGSLRISCAASGSIFSYYAMGWYRQAPGTERELVAAITRGGTTYYADSVKGRFTISRDNAKNTVYLQMNSLKPEDTAVYYCAVYYYSGTAGYRYGYWGQGTQVTVSS | high polyreactivity
QVQLVESGGGLVQAGGSLRISCAASGSIFVTNAMGWYRQAPGKERELVAAISSGGNTNYADSVKGLFTISRDNAKNTVYLQMNSLKPEDTAVYYCAKDPDKVDYVDMDYWGQGTQVTVSS | low polyreactivity
